Measured values: the DeepSol protein solubility set

Assay: soluble on expression in E. coli; label from the status in PepcDB or PDB records

Q: Which “soluble on expression in E. coli” value does the source give for “SNANAEPAVKAESAGKSVAASLKARLEKTYSAQDLKVLSVSETPVKGIYEVVVSGRQIIYTDAEGGYMFVGELINIDTRKNLTEERAADLNKIDFASLPLDKAIKEVRGNGKLKVAVFSDPDCPFCKRLEHEFEK” here?
A: not soluble

Q: Which “soluble on expression in E. coli” value does the source give for “SNANNLFVYCEIEEGIVADVSLELLTKGRSLANELNCQLEAVVAGTGLKEIEKQILPYGVDKLHVFDAEGLYPYTSLPHTSILVNLFKEEQPQICLMGATVIGRDLGPRVSSALTSGLTADCTSLEIGDHEDKKEGKVYKNLLYQIRPAFGGNIVATIVNPEHRPQMATVREGVMKKEIVSPAYQGEVIRHDVKKYVADTDYVVKVIERHVEKAKNN” here?
A: soluble

Q: With “SNAQVEVIVMMHGRSTATSMVETVQELLSIESGIALDMPLTVEVKAMYEKLKQTVVKLNPVKGVLILSDMGSLTSFGNILTEELGIRTKTVTMVSTPVVLEAMRKASLGRGLEDIYQSCEQLFENKYKAH” as the sequence, how does the “soluble on expression in E. coli” value read?
A: soluble

Q: For “SNARGLGSELKDSIPVAELSASGPFESHDLLRKGFSCVKNELLPSHPLELSEKNFQLNQDKMNFSTLRNIQGLFAPLKLQMEFKAVQQVHRLPFLPSSNLSLDILRGNDETIGFEDILNDPSQSELMGEPHVMVEHKLGLL”, which “soluble on expression in E. coli” value is on record?
A: soluble

Q: With “SNASKGMALRSVGGMVIESPRNETEHWLLETVGRQAQQAGIGMPTVAIYDSADINAFATGAKRDDSLVAVSTGLLHNMTRDEAEAVLAHEVSHIANGDMVTMTLMQG” as the sequence, how does the “soluble on expression in E. coli” value read?
A: soluble

Q: For “SNIMDFNVKKLAADAGTFLSRAVQFTEEKLGQAEKTELDAHLENLLSKAECTKIWTEKIMKQTEVLLQPNPNARIEEFVYEKLDRKAPSRINNPELLGQYMIDAGTEFGPGTAYGNALIKCGETQKRIGTADRELIQTSALNFLTPLRNFIEGDYKTIAKERKLLQNKRLDLDAAKTRLKKAKAAETRNSSEQELRITQSEFDRQAEITRLLLEGISSTHAHHLRCLNDFVEAQMTYYAQCYQYMLDLQKQLGSFPSNYLSNNNQTSVTPVPSVLPNAIGSSAMASTSGLVITSPSNLSDLKECSGSRKARVLYDYDAANSTELSLLADEVITVFSVVGMDSDWLMGERGNQKGKVPITYLELLN”, which “soluble on expression in E. coli” value is on record?
A: not soluble

Q: With “SNTLRDFFTNETYTTIENEQHVLTEYRLPGSIERRYYSEEATAPTTVRSVQHVLLPENEEASSDKDLSILSSSFIHKVYKLADKQEAKKKRYSADVNGEKVFFVIKKGLSVNGQSAMMLSYALDSYRDDLAYTLFKQ” as the sequence, how does the “soluble on expression in E. coli” value read?
A: not soluble

Q: Which “soluble on expression in E. coli” value does the source give for “SPFMFRPRKQVFQTQGAAVSSMAQTLLPNDLASKAMGSAFTALLDANEDAQKAMKIIKTLSSLSDAWENVKETLNNPEFWKQLLSRCVQLIAGMTIAVMHPDPLTLLCLGTLTAAEITSQTSLCEEIAAKFKTIFITPPPRFPTISLFQQQSPLKQVNDIFSLAKNLDWAVKTVEKVVDWFGTWIVQEEKEQTLDQLLQRFPEHAKRISDLRNGMAAYVECKESFDFFEKLYNQAVKEKRTGIAAVCEKFRQKHDHATARCEPVVIVLRGDAGQGKSLSSQVIAQAVSKTIFGRQSVYSLPPDSDFFDGYENQFAAIMDDLGQNPDGSDFTTFCQMVSTTNFLPNMASLERKGTPFTSQLVVATTNLPEFRPVTIAHYPAVERRITFDYSVSAGPVCSKTEAGYKVLDVERAFRPTGEAPLPCFQNNCLFLEKAGLQFRDNRTKEIISLVDVIERAVARIERKKKVLTTVQTLVAQ” here?
A: soluble

Q: With “SQIPLCANLVPVPITNATLDRITGKWFYIASAFRNEEYNKSVQEIQATFFYFTPNKTEDTIFLREYQTRQNQCFYNSSYLNVQRENGTVSRYEGGREHVAHLLFLRDTKTLMFGSYLDDEKNWGLSFYADKPETTKEQLGEFYEALDCLCIPRSDVMYTDWKKDKCEPLEKQHEKERKQEEGES” as the sequence, how does the “soluble on expression in E. coli” value read?
A: soluble

Q: For “SQNNEIIKPAKYFSELEKSILLALVEKYKYVLECKKSDARTIALKQRTWQALAHEYNSQPSVSLRDFKQLKKCWENIKARTKKIMAHERREKVKRSVSPLLSTHVLGKEKIASMLPEQLYFLQSPPEEEPEYHPDASAQESFAVSNRELCDDEKEFIHFPVCEGTSQPEPSCSAVRITANKNYRSKTSQEGALKKMHEEEHHQQMSILQLQLIQMNEVHVAKIQQIERECEMAEEEHRIKMEVLNKKKMYWERKLQTFTKEWPVSSFNRPFPNSP”, which “soluble on expression in E. coli” value is on record?
A: soluble

Q: For “SQTRDLQGGKAFGLLKAQQEERLDEINKQFLDDPKYSSDEDLPSKLEGFKEKYMEFDLNGNGDIDIMSLKRMLEKLGVPKTHLELKKLIGEVSSGSGETFSYPDFLRMMLGKRSAILKMILMYEEKAREK”, which “soluble on expression in E. coli” value is on record?
A: not soluble

Q: With “SRMRRYKSYFDWFDRQELHSMFQIAVPSVLQQSTVSIGMMIVQAVVNPFGTQALAGYAATMRVENVFSLIFVSIGNAVSPYVSQNLGANKPQRIKKGYRAA” as the sequence, how does the “soluble on expression in E. coli” value read?
A: not soluble

Q: With “SRRLEDLHPDLQPLAHSFLRRCTDAGLDVLIYCTYRSGAEQDQLYAQGRKGSPGPIVTNARAGQSAHNFTIQNRPAARAFDAVPMVGGKPQWDQKHPHWQIMGRIGTELG” as the sequence, how does the “soluble on expression in E. coli” value read?
A: not soluble

Q: For “SSGGKSAQGPEEGGVCITEALITKRNLTFPEDGELSEKMFHTLDELQTVRLDREGITTIRNLEGLQNLHSLYLQGNKIQQIENLACIPSLRFLSLAGNQIRQVENLLDLPCLQFLDLSENLIETLKLDEFPQSLLILNLSGNSCTNQDGYRELVTEALPLLLDLDGQPVVERWISDEEDEASSDEEFPELSGPFCSERGFLKELEQELSRHREHRQQTALTEHLLRMEMQPTLTDLPLLPGVPMAGDSSPSATPAQGEETVPEAVSSPQASSPTKKPCSLIPRGHQSSFWGRKGARAATAPKASVAEAPSTTKTTAKRSKK”, which “soluble on expression in E. coli” value is on record?
A: soluble

Q: Which “soluble on expression in E. coli” value does the source give for “SSIRFYLAPNDADFTVYYTGTDGNWYETKATYKKVSVKKYEVTLPEITIGGAAEIEFKGVHRGPPNTVISAKFDVVGGTTQPEPEPDPAPEPQPAPEPEPGTSVNPAAPTAVDPATAPSCVEKGYINIPDTKGVDYFIGGELKHAGQHFYEGQKASVKVTAKPQNGYQFAAGAKTEWSFDFSGEVKDCSDSSEDPKPAAVEGRHFDAIGHEFAVEADPVDPTKPNAFTAKVTAESHMKYATVRIETDATFLDPQKYNLTLDQIEPGVTLQKRNVNIGNGFITMDVVPVKDGKPVDSAVVPKDAVFTFTNNLSENKNLKIALDVYGANKSTPKPPDIISPPDGAQWVHGRVPNPPMPKRCGLRIAVVADLSTSLKYADSNGFDESKKAANALIDSLAGTPAELGIYNFAGGAPRNPAGSTYGQNPPYISLQSDDGVSRAKSIVSNWNGNGSTNWEAGLKQVAAGNYDVVYFITDGMPTYSSKAPQLGLGGEFVQESALNQAIDAANELKAAGTRVVPIMVDLTVGGKNAQHTTVTQDLVLKNVRFWKRGTSNSEPGLYFQFTNKYVDAASYVGDDTTANFEIAYKNGGFKVWERTSRGRNIDVTRDQSKWTYGPREVKTMGEDISGTGDTIRVEQYSQLAAQMKKIGEELALRCNGVVKVKKRIVDENGRAIEDGVPGWEFTLSAGGQDIIDPGNGDRVRKSLKATSSANEDRGTASWNIMSEQEQQLTLVETQQPGFNLYKRNDKNAVCTETRDGVMKPIEVTNDGEFGFKVKMRAKDKKLSSVSCVVDNYKQPETPPGKLTFKKAQYNGDKIEEIPGLGGATFEIYPSKGDQPDYSAEALYTIKPGQESIEVKTTGTFFLVETKAPKGLNLLAQPVKFEISVDETTKKYKISVGSTSSGQVQAKGEGDKMILTVADTTAGELPKTGG” here?
A: not soluble

Q: For “SSLIQAGQQTRFTTDASAAVEPADSARETWSRGVLVAWDMTLGDVVKELRRYRSGYLGIAPEVAGLRVFGSFPLRDTDDTLTMLASALPIRIQRTLPWWVSIEARTDADPHR”, which “soluble on expression in E. coli” value is on record?
A: not soluble

Q: Which “soluble on expression in E. coli” value does the source give for “SSMIMYRKDLMEKAGLTMPDAPTWDFVKEAAQKMTDKDAEVYGICLRGKAGWGENMAFLTAMANSYGARWFDENWQPQFDGEAWKATLTDYLDMMTNYGPPGASNNGFNENLALFQQGKCGMWIDATVAASFVTNPEESTVADKVGFALAPDTGKGKRANWLWAWNLAIPAGSQKVDAAKQFIAWATSKDYAELVASKEGWANVPPGTRISLYENP” here?
A: not soluble

Q: For “SSQSISPMRSISENSLVAMDFSGQKSRVIENPTEALSVAVEEGLAWRKKGSLRLGTHGS”, which “soluble on expression in E. coli” value is on record?
A: soluble
